What was measured:
[1] = test system: Huh-7 cell line; type: cell-based
Description: In vitro toxicity of the fusion polypeptide LNT103 was evaluated by cell cytotoxicity assay (WST assay) using Huh-7 cell line and hemolysis assay using sheep blood (MB cell).
The process of progressing the cell cytotoxicity assay was as follows. The Huh07 cell culture solution was prepared and aliquoted in an amount of […] per well in a 96 well plate, and it was cultured in a CO2 incubator for 24 hours. Then, PBS as a negative control and 1% (w/v) triton X-100 as a positive control were treated, and as an experimental group, the fusion polypeptide LNT103 was treated at a concentration of 0.25, 0.5, or 1 mg/ml, and then it was left in a CO2 incubator for 24 hours and 48 hours. Then, the cell viability was measured using D-Plus™ CCK cell viability assay kit (Dongin LS), and the result was shown in FIG. 18.

[2] = test system: Escherichia coli; assay: CFU reduction evaluation; type: cell-based; settings: E. coli (ATCC 8739); 2 μM, 2 hours
Description: (§1) In order to confirm the killing ability against gram negative bacterium of the fusion polypeptide LNT103 prepared in Example 3.2, CFU reduction evaluation was performed for various gram negative bacterium. In order to perform the CFU reduction evaluation, 2 μM of each of LNT101, LNT102, and LNT103 prepared in Example 3, and 1×10^6 CFU of each of Pseudomonas aeruginosa (PA01; ATCC 15692), Acinetobacter baumannii (ATCC 17978), Escherichia coli (ATCC 8739), Klebsiella pneumoniae (ATCC 13883), and Enterobacter aerogenes (CCARM 16006) were added to reaction buffer (20 mM Tris-Cl, pH7.5) so that the final volume was 200 μl, and it was left at 37° C. for 2 hours. After that, the number of the colonies of each gram negative bacterium was confirmed to compare and evaluate the antibiotic effect of each polypeptide. As a control group, the PBS treatment group (treating PBS in the same volume as the fusion polypeptide) was used.

[3] = test system: Klebsiella pneumoniae; assay: CFU reduction evaluation; type: cell-based; settings: Klebsiella pneumoniae (ATCC 2208); 2 μM, 2 hours
Description: as §1

[4] = test system: Acinetobacter baumannii ATCC 19606; assay: Acinetobacter baumannii systemic infection mouse model, viability; type: in vivo; settings: ICR male mice; LNT103 20 mpk and 100 mpk, subcutaneous injection 1 hour and 4 hours after infection; comparative colistin 20 mpk
Description: For in vivo effectivity evaluation of the fusion polypeptide LNT103, the viability was confirmed in an Acinetobacter baumannii ATCC 19606 systemic infection mouse model was confirmed.
The process of progressing an animal experiment was as follows. Mice were used when ICR male 4-week-old mice were purchased and a one-week adaptation period was passed, and the weight was 20˜21 g at 5-6 weeks of age. The Acinetobacter bacteria were mixed with 10% mucin at 1:1, and 0.5 ml of 2×10^8 CFU/ml (5% mucin) of the bacterial solution was inoculated intraperitoneally into mice. In 1 hour and 4 hours after infection, LNT103 20 mpk and LNT103 100 mpk, and colistin 20 mpk as a comparative group were administered, respectively, through a subcutaneous injection.

[5] = test system: E. coli; assay: MIC and MBC, broth microdilution in CAA media; type: cell-based
Description: In addition, MIC (Minimal Inhibitory Concentration) and MBC (Minimal Bactericidal Concentration) of the fusion polypeptide LNT103 were measured. […] Specifically, the LNT103 was treated at a concentration of 64 μg/ml to a 96 well microplate row A, and the LNT103 was treated at a concentration where serial dilution was performed by ½ in rows B-G. To the row H, LNT103 was not treated. After that, the corresponding bacterium strain (type or QC, CCARM and clinical separation strain; See Tables 2-4) was treated in an amount of 5×10^5 CFU/ml, total 100 μl in all wells. Then, it was cultured at 37° C. for 18 hours. MIC was determined to be the lowest concentration at which no colonies were identified by confirming the number of the colonies in each well.

B1: LNT103: fusion polypeptide [Cecropin A]-[linker (GSGSGS)]-[endolysin LNT102]; SEQ ID NO: 15 (MAS, His tag) used in the tests (protein)
chain: MASKWKLFKKIEKVGQNIRDGIIKAGPAVAVVGQATQIAKGSGSGSMGTVLKRGDRGSAVEDLQMKLNVAGYNLSADGIFGGDTEKAVRDVQAGAGLVVDGKVGPKTLYAIAKSATVPAKWEAIPFPTANKSRSAAMPTLNAVGAMTGVDSRLLATFASIESAFDYTVKAKTSSATGWFQFLDATWDDMIKAYGSKYGIPKDPTRALRKDPRANALMGAEFIKGNAAVLRPVINREPSDTDLYLAHFLGAGGAKKFLSADQKTLGEVLFPKPAKANPSIFSNKGVPRTLAEIYKLFEDKVSKHRALEHHHHHH
modifications: synthetic_Fusion Polypeptide LNT103 with MAS, His tag, and extra sequence
- IC50 (cytotoxicity) [1]: > 1000 µg/mL
- CFU Counting result [2]: 0 log CFU/ml
- CFU Counting result [3]: 0 log CFU/ml
- viability for 96 hours [4]: higher viability compared to the non-administration group (control) and comparative group (colistin administration group)
- MBC ([5]; E. coli ATCC 8739): 8 µg/mL
- MIC ([5]; E. coli ATCC 8739): 8 µg/mL
- MBC ([5]; E. coli CCARM 1A746): 8 µg/mL
- MIC ([5]; E. coli CCARM 1A746): 8 µg/mL
- MBC ([5]; E. coli CCARM 1B684): 8 µg/mL
- MIC ([5]; E. coli CCARM 1B684): 4 µg/mL
- MBC ([5]; E. coli CCARM 1G448): 4 µg/mL
- MIC ([5]; E. coli CCARM 1G448): 4 µg/mL
- MBC ([5]; E. coli CCARM 1460): 4 µg/mL
- MIC ([5]; E. coli CCARM 1460): 4 µg/mL
- MBC ([5]; E. coli F340): 16 µg/mL
- MIC ([5]; E. coli F340): 16 µg/mL
- MBC ([5]; E. coli F481): 8 µg/mL
- MIC ([5]; E. coli F481): 8 µg/mL
- MBC ([5]; E. coli F485): 8 µg/mL
- MIC ([5]; E. coli F485): 4 µg/mL
- MBC ([5]; E. coli F524): 16 µg/mL
- MIC ([5]; E. coli F524): 16 µg/mL
- MBC ([5]; E. coli F716): 32 µg/mL
- MIC ([5]; E. coli F716): 16 µg/mL
- MBC ([5]; E. coli F852): 32 µg/mL
- MIC ([5]; E. coli F852): 16 µg/mL
- MBC ([5]; E. coli F859): 32 µg/mL
- MIC ([5]; E. coli F859): 32 µg/mL
- MBC ([5]; E. coli F862): 4 µg/mL
- MIC ([5]; E. coli F862): 4 µg/mL
- MBC ([5]; E. coli FORC81): 4 µg/mL
- MIC ([5]; E. coli FORC81): 4 µg/mL
- MBC ([5]; E. coli UPEC 3042): 32 µg/mL
- MIC ([5]; E. coli UPEC 3042): 32 µg/mL
- MBC ([5]; E. coli UPEC 3181): 8 µg/mL
- MIC ([5]; E. coli UPEC 3181): 8 µg/mL
